Laboratory results reported in patent US20260240999A1, “METHODS FOR EX VIVO ENRICHMENT AND EXPANSION OF TUMOR REACTIVE T CELLS AND RELATED COMPOSITIONS THEREOF” (H. LEE MOFFITT CANCER CENTER AND RESEARCH INSTITUTE, INC., priority 2022, published 2026).

What was measured:
[1] = system: previously expanded human T cells from three healthy donors; experiment: Cytokines, modulators and agonist antibodies with IL-2 on T cell number and memory phenotype; assay type: cell-based; settings: for percent naïve and central memory T cells at Day 6: cytokine plus 300 IU/mL IL-2; for CD3+ cells/mL on Day 6: cytokine plus 300 IU/mL IL-2 vs IL-2 alone
Protocol: PBMC from three healthy donors were activated, expanded, and cryopreserved as described in Example 11. […] As previously described, stimulation of the healthy donor T cells prior to cryopreservation were carried out with anti-CD3 (OKT3) stimulation in order to mimic conditions present in the tumor microenvironment (TME).
Cells were next seeded into gas permeable 100M culture vessels and expanded for 7-14 days to achieve a large bank of T cells, and cryopreserved.
Cells were maintained in culture for 6 days, with a 50% medium exchange occurring at 3 days post culture initiation.
At the end of the culture period for all culture conditions, cells were assessed for cell count and sub-phenotypes of naïve and central memory T cells by flow cytometry by staining with CD45RA and CCR7 (naïve, CD45RA+ CCR7+; “central” memory, CD45RA-CCR7+).

[2] = system: previously expanded human T cells from three healthy donors; experiment: Effect of T cell adjuvants on T cell viability (total viable CD3+ cell count); assay type: cell-based; settings: 62.5 IU/ml-1000 IU/ml
Protocol: Cells were expanded from PBMC derived from Ficoll gradient separation from three healthy donor's apheresis material. […] Because the studies were carried out in healthy donors, stimulation of the T cells was carried out with anti-CD3 (OKT3) stimulation in order to mimic conditions present in the tumor microenvironment (TME).
Cells were next seeded into gas permeable 100M culture vessels and expanded for 7-14 days to achieve a large bank of T cells, and cryopreserved. […] Half of wells were additionally supplemented with 50 ng/mL OKT3, a human anti-CD3 monoclonal antibody. In total, 15 test adjuvant agents were tested for their impact on cell viability in the presence and absence of anti-CD3 activation (see Table E3). Cells were cultured for 6 days total, including a 50% medium exchange on culture day 3, and monitored for total viable CD3+ cell count.

[3] = at each of three tested concentrations (3.9, 250, and 1000 IU/mL)

B1: IL-23: recombinant cytokine, P19 (SEQ ID NO: 1) and P40 (SEQ ID NO: 2) subunits (protein)
chain 1: RAVPGGSSPAWTQCQQLSQKLCTLAWSAHPLVGHMDLREEGDEETTNDVPHIQCGDGCDPQGLRDNSQFCLQRIHQGLIFYEKLLGSDIFTGEPSLLPDSPVGQLHASLLGLSQLLQPEGHHWETQQIPSLSPSQPWQRLLLRFKILRSLQAFVAVAARVFAHGAATLSP
chain 2: IWELKKDVYVVELDWYPDAPGEMVVLTCDTPEEDGITWTLDQSSEVLGSGKTLTIQVKEFGDAGQYTCHKGGEVLSHSLLLLHKKEDGIWSTDILKDQKEPKNKTFLRCEAKNYSGRFTCWWLTTISTDLTFSVKSSRGSSDPQGVTCGAATLSAERVRGDNKEYEYSVECQEDSACPAAEESLPIEVMVDAVHKLKYENYTSSFFIRDIIKPDPPKNLQLKPLKNSRQVEVSWEYPDTWSTPHSYFSLTFCVQVQGKSKREKKDRVFTDKTSATVICRKNASISVRAQDRYYSSSWSEWASVPCS
modifications: P19, UniProt Q9NPF7 20-189; P40, UniProt P29460 23-328
percent naïve and central memory T cells at Day 6 [1]: measured increase in the percent naïve and central memory T cells
CD3+ cells/mL on Day 6 [1]: increase in CD3+ cells/mL on Day 6

B2: IL-7: recombinant cytokine (protein, UniProt P13232 26-177, looked up)
Interleukin-7: DCDIEGKDGKQYESVLMVSIDQLLDSMKEIGSNCLNNEFNFFKRHICDANKEGMFLFRAARKLRQFLKMNSTGDFDLHLLKVSEGTTILLNCTGQVKGRKPAALGEAQPTKSLEENKSLKEQKKLNDLCFLKRLLQEIKTCWNKILMGTKEH
dose response of cell number [2]: dose dependent response, wherein cell number increased with increasing concentration
percent naïve and central memory T cells at Day 6 [1]: measured increase in the percent naïve and central memory T cells
CD3+ cells/mL on Day 6 [1]: increase in CD3+ cells/mL on Day 6

B3: IL-35: heterodimeric protein of p35 subunit from IL-12 and EBI3 (protein, UniProt P29459 23-219; Q14213 21-229, looked up)
Interleukin-12 subunit alpha: RNLPVATPDPGMFPCLHHSQNLLRAVSNMLQKARQTLEFYPCTSEEIDHEDITKDKTSTVEACLPLELTKNESCLNSRETSFITNGSCLASRKTSFMMALCLSSIYEDLKMYQVEFKTMNAKLLMDPKRQIFLDQNMLAVIDELMQALNFNSETVPQKSSLEEPDFYKTKIKLCILLHAFRIRAVTIDRVMSYLNAS
Interleukin-27 subunit beta: RKGPPAALTLPRVQCRASRYPIAVDCSWTLPPAPNSTSPVSFIATYRLGMAARGHSWPCLQQTPTSTSCTITDVQLFSMAPYVLNVTAVHPWGSSSSFVPFITEHIIKPDPPEGVRLSPLAERQLQVQWEPPGSWPFPEIFSLKYWIRYKRQGAARFHRVGPIEATSFILRAVRPRARYYVQVAAQDLTDYGELSDWSLPATATMSLGK
percent naïve and central memory T cells at Day 6 [1]: measured increase in the percent naïve and central memory T cells
CD3+ cells/mL on Day 6 [1]: increase in CD3+ cells/mL on Day 6

B4: IL-27: recombinant cytokine, heterodimer of IL27A (p28) and EBI3 (protein, UniProt Q8NEV9 29-243; Q14213 21-229, looked up)
Interleukin-27 subunit alpha: FPRPPGRPQLSLQELRREFTVSLHLARKLLSEVRGQAHRFAESHLPGVNLYLLPLGEQLPDVSLTFQAWRRLSDPERLCFISTTLQPFHALLGGLGTQGRWTNMERMQLWAMRLDLRDLQRHLRFQVLAAGFNLPEEEEEEEEEEEEERKGLLPGALGSALQGPAQVSWPQLLSTYRLLHSLELVLSRAVRELLLLSKAGHSVWPLGFPTLSPQP
Interleukin-27 subunit beta: RKGPPAALTLPRVQCRASRYPIAVDCSWTLPPAPNSTSPVSFIATYRLGMAARGHSWPCLQQTPTSTSCTITDVQLFSMAPYVLNVTAVHPWGSSSSFVPFITEHIIKPDPPEGVRLSPLAERQLQVQWEPPGSWPFPEIFSLKYWIRYKRQGAARFHRVGPIEATSFILRAVRPRARYYVQVAAQDLTDYGELSDWSLPATATMSLGK
CD3+ cell number [1, 3]: significant increase in CD3+ cell number
percent naïve and central memory T cells [1, 3]: significant increase in CD3+ cell number as well as percent naïve and central memory T cells
percent naïve and central memory T cells at Day 6 [1]: measured increase in the percent naïve and central memory T cells
CD3+ cells/mL on Day 6 [1]: increase in CD3+ cells/mL on Day 6
